Laboratory results published in patent publication US8802160B2 (Amorphical Ltd., priority 2007, dated 2014).
Entries after “also recorded” stand apart in the source; their conditions may differ.

Experiments:
[1] = In vitro calcium carbonate precipitation assay testing the stabilization of ACC; assay type: physicochemical; details: for effect on calcium carbonate precipitation (polymorph obtained): CaCl2 + Na2CO3 solution, SEM, Raman
Procedure: Electron microscope images of the precipitates distinctly indicated different polymorph composition of calcium carbonate for the precipitation in the presence/absence of GAP65-enriched fractions (FIG. 7).
FIG. 7 presents precipitation results of calcium carbonate in the presence of GAP65 and in the presence of other protein (trypsin). SEM images in FIG. 7A indicate the distinct polymorph of calcium carbonate in each treatment.
(§1) 100 μl of 1M CaCl2 was added to 10 ml double distilled water (final concentration: 10 mM). 80 μl from the protein extraction solution (1.2 μg/μl) were added (final concentration ˜10 μg/ml). 100 μl of 1M Na2CO3 (final concentration: 10 mM) was added following an intensive shaking. The vial was centrifuged for 5 min at 4000 rpm, the precipitate was smeared over a glass slide and instantly dried with air flow. […] The observations were confirmed by Raman spectroscopy.
The peak at 560 is attributed to the glass substrate. […] Specific expression of GAP21, GAP22 and GAP65 in several target tissues was checked by means of RT-PCR, similarly as described in Example 2. GAP21 and GAP65 expressions were found in both cuticle related tissues. GAP22 expression was found only in the gastrolith epithelial disc. The cDNA sequences of the corresponding genes were obtained and their deduced proteins were found (FIGS. 13-15). […] GAP12, GAP21 and GAP22, on the other hand, show no significant similarity to any known domain.

[2] = Stability of ACC at room temperature by Raman spectroscopy; assay type: physicochemical
Procedure: The precipitated calcium carbonate was checked over long periods for the amorphous/crystalline state.
as §1

B1: trypsin (protein, UniProt P00760 24-246, looked up)
Serine protease 1: IVGGYTCGANTVPYQVSLNSGYHFCGGSLINSQWVVSAAHCYKSGIQVRLGEDNINVVEGNEQFISASKSIVHPSYNSNTLNNDIMLIKLKSAASLNSRVASISLPTSCASAGTQCLISGWGNTKSSGTSYPDVLKCLKAPILSDSSCKSAYPGQITSNMFCAGYLEGGKDSCQGDSGGPVVCSGKLQGIVSWGSGCAQKNKPGVYTKVCNYVSWIKQTIASN
notes: other (inert) protein used as control in the precipitation assay
effect on calcium carbonate precipitation (polymorph obtained) [1]: rapid crystallization

B2: GAP65: approximately 65 kDa negatively charged glycoprotein from Cherax quadricarinatus gastrolith, SEQ ID NO:1; used as GAP65 enriched fraction (protein, listed as Cherax quadricarinatus)
chain: MIRRVTTPLLALLLAGWVVAQTTDMDPEQYCARRDDEYFRKDFGDPAEFASDYRANCGVYYRCVPAPAGKRSISASQCQSELFFDVQQQICERKSKVTNCEQIDKEHPPQPFWPLREGEESQCKSGEIMCGSGECLPQHRFCDENSDCADGSDENICTPDKDPNRADVCEPRTCLWSQGCFCSVDGTRIPGDLTVDQTPQMITITFTGAINERNFRIFQDVFKDTVKHKGNDCTPKGTFFISHGFSNYSAIQELNRVGHEIAVSSITNNDNPDYWSKLSALDYEAEMDGARLIIEKFANITANEVLGIRVPKQRVGGNRQFRMMVDWGFLYDSSISAPMGRLPLWPYTLMHRMPHKCLGNDQNCPSQNFTVWEMVINEMDRRDDPQFDERLTGCHFVDQCANIQSPEQFRAFLDNNLARHYRTNRAPLGLHFTSGYFETRRDFLREFVKWVRETALSGDYFFVTMQQVINWMEAPTELTAINNFQEWKGKCEVKGQPYCSLPNPCPKKVPRIFPNEEEMFLYTCMECPNTYPWLGDPHGNGFLDIPDF
modifications: glycosylated
notes: used as GAP65 enriched fraction
ACC share of the total CaCO3 precipitated ([1]; 10 mM CaCl2, 10 mM Na2CO3, ~10 μg/ml protein, estimated): at least 50% | effect on calcium carbonate precipitation (polymorph obtained) [1]: amorphous CaCO3; also recorded: deposition of an amorphous form (ACC) | time ACC precipitated with GAP65 remained stable [2]: at least 1 months
